Like-named read-outs stand apart in the source and are kept apart here.
Tests used:
[1] = target: T1, recombinant RBD protein of wild-type SARS-CoV-2 (ELISA antigen) (SARS-CoV-2 wild-type, UniProt P0DTC2); assay: ELISA; details: one partner purified
T1 construct: No catalogue number printed

[2] = target: SARS-CoV-2 RBD immobilised on the CM5 chip (SARS-CoV-2 wild-type (assumed)); assay: SPR; details: both partners purified
SARS-CoV-2 wild-type RBD = target: T2, SARS-CoV-2 wild-type RBD (SARS-CoV-2 wild-type); assay: crystal structure; details: both partners purified
T2 construct: also called WT-RBD

[3] = target: recombinant wild-type SARS-CoV-2 S trimer (ELISA antigen) (SARS-CoV-2 wild-type, UniProt P0DTC2)
[4] = target: T1, recombinant RBD protein of wild-type …

Row | Binder | binding result [1] | binding result [2] | binding result (SARS-CoV-2 wild-type RBD) | binding result [3] | binding result [4]
1 | P5-1H1 (full IgG1) (antibody, V domains shown) VH: EVQLVESGGGLIQPGGSLRLSCAASGITVSSNYMTWVRQPPGKGLEWVSVIYSGGSTFYADPVKGRFTISRDNSRNTLYLQMNSLRAEDTAVYYCARDLQVYGMDVWGQGTTVTVSS VL: DIQLTQSPSFLSASVGDRVTITCRASQGISNFLAWYQQKPGKAPKLLIYAASTLQGGVPSTFSGSGSGTEFTLTISSLQPEDFATYYCQHLNDYPLFGGGTRVEIK | binds | binds |  |  | 
2 | P5-1H1 Fab (Fab, V domains shown) VH: EVQLVESGGGLIQPGGSLRLSCAASGITVSSNYMTWVRQPPGKGLEWVSVIYSGGSTFYADPVKGRFTISRDNSRNTLYLQMNSLRAEDTAVYYCARDLQVYGMDVWGQGTTVTVSS VL: DIQLTQSPSFLSASVGDRVTITCRASQGISNFLAWYQQKPGKAPKLLIYAASTLQGGVPSTFSGSGSGTEFTLTISSLQPEDFATYYCQHLNDYPLFGGGTRVEIK |  |  | binds |  | 
3 | P5S-2G8 (antibody, V domains shown) VH: QMQLVQSGAEVKKTGSSVKVSCKASGSTFTHRYLHWVRQAPGQALEWMGWITPFNGDTNYAQKFQDRVTITRDGSMSTVYMDLSSLRSEDTAMYYCAAGARWGDSYYYYGMDVWGQGTAVTVSS VL: QSALTQPPSASGSPGQSVTISCTGTSSDVGGYNYVSWYQQHPDKAPKLMIYEVSKRPSGVPDRFSGSKSGNTASLTVSGLQAEDEADYYCSSYAGNNNLVFGTGTKVTVL |  |  |  | binds | binds
4 | P195-2B9 (antibody, V domains shown) VH: QVQLQESGPGLVKPSETLSLTCTVSGGSSSSHFWSWIRQPPGKGLEWIGYIYYGGNTNYNPSLKSRVTISVDTSKSQFSLKLSSVTAADTAVYYCARHHYYYDSSDFRLKAGYYFDYWGQGTLVAVSS VL: QSVLTQPPSVSGAPGQRVTISCTGSSSNIGAGYDVHWYQQLPGTAPKLLIFDNNDRPSGVPDRFSGSKSDTSASLAITGLQAEDEADYYCQSYDSSLISWVFGGGTKLTLL |  |  |  | binds | binds
5 | P5-1C8 (full IgG1) (antibody, V domains shown) VH: EVQLVESGGGLIQPGGSLRLSCAASEIIVSRNYMNWVRQAPGKGLEWVSVIYSGGSTFYADSVKGRFTISRDNSENTLYLQMNSLRAEDTAVYYCARGYGDYYFDYWGRGTLVTVSS VL: not shown | binds | binds |  |  | 
6 | P2-1B1 (full IgG1) (antibody, V domains shown) VH: QVQLVQSGAEVKRPGSSVKVSCKASGGTFSSYAISWVRQAPGQGPEWMGGIIPIFGTPHNAQKFQGRVTITADESTSTAYMELSSLRSEDTAMYYCSRTKGDILTGYTDYYFDSWGQGTLVTVSS VL: not shown | binds | binds |  |  | 

Source: publication PMC10063446 (Nature Immunology, 2023)
